Our source for the 293T-EphA2细胞结合活性 values is CN115505041A.

The target of the experiment is 人EphA2 (human EphA2 on cells: 293T-EphA2 stable line and EphA2-positive tumour lines HCT116, HepG2, HCC827, MDA-MB-231) (human) (UniProt P29317). Description: FACS on 293T-EphA2 cells, EphrinA1-hFc alone (positive control without hybridoma supernatant), APC anti-human IgG Fc.
Chain of UniProt P29317 (P29317 24-976): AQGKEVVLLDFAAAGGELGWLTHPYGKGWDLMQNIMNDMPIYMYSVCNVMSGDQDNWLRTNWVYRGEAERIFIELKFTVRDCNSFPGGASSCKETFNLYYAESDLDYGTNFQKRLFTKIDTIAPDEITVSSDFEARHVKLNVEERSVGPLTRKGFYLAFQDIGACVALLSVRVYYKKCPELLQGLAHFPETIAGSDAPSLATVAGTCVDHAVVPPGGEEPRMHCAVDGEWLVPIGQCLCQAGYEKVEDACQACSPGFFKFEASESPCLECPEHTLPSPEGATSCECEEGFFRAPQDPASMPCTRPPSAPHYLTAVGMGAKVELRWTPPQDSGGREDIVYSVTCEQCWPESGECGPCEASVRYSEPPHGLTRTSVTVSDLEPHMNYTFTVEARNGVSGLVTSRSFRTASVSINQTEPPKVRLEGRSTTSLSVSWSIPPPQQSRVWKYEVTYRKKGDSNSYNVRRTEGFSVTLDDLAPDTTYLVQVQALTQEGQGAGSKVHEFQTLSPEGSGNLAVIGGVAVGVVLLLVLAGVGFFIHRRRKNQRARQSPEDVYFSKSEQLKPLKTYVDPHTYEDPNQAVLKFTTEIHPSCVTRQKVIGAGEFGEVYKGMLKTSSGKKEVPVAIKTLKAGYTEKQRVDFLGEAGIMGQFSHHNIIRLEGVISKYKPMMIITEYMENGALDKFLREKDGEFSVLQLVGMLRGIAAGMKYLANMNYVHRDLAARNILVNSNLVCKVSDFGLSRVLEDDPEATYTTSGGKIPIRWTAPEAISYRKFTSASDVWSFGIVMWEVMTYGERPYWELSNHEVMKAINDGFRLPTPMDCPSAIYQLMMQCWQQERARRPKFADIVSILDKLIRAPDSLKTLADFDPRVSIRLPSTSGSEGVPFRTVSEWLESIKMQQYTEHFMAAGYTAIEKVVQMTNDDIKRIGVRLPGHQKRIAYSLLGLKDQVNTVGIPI

For the substance “重组EphrinA1-hFc配体蛋白 (recombinant EphrinA1-hFc ligand protein) (Fc fusion)”, the 293T-EphA2细胞结合活性 is 228000.
